In patent US20260265409A1, “ANTIBODY FUSION PROTEIN TARGETING FAP AND TGFbeta, AND USE THEREOF” (NANJING LEADS BIOLABS CO., LTD., priority 2022, published 2026):

Experiments:
[1] = Stability at 40° C., purity by SEC; assay type: physicochemical; details: for Purity by SEC, %: mutant antibody storage stability
Experimental: The purified antibodies were concentrated, and sterile filtration was performed. The purity of the antibodies was determined by size exclusion chromatography (SEC). Specifically, the samples were loaded at 20 μg onto a TSK G3000SWXL column using 100 mM sodium phosphate+100 mM Na2SO4 (pH 7.0) as a running buffer for 30 min. The collected effluent was measured using the Agilent 1220 HPLC system and the data were analyzed using OpenLAB software.
The huF19-LG antibody was tested for stability at 40° C. ELISA (see Example 1.2) and SEC (see Example 1.1) were conducted at 0 weeks (OW), 2 weeks (2W), or 4 weeks (4W) with the results shown as follows:
The activity and purity of the molecule were determined by SEC after storage. See Example 1.5 for the specific procedures.

[2] = biological target: T1, human FAP protein expressed on 293T cells (Homo sapiens, UniProt Q12884); experiment: Cell binding assay by flow cytometry, 293T-human FAP cells
T1 construct: expressed in transfected cells; host or cells: 293T cells, PIRES-puro3 vector, puromycin selection
T1 sequence (Q12884 1-760): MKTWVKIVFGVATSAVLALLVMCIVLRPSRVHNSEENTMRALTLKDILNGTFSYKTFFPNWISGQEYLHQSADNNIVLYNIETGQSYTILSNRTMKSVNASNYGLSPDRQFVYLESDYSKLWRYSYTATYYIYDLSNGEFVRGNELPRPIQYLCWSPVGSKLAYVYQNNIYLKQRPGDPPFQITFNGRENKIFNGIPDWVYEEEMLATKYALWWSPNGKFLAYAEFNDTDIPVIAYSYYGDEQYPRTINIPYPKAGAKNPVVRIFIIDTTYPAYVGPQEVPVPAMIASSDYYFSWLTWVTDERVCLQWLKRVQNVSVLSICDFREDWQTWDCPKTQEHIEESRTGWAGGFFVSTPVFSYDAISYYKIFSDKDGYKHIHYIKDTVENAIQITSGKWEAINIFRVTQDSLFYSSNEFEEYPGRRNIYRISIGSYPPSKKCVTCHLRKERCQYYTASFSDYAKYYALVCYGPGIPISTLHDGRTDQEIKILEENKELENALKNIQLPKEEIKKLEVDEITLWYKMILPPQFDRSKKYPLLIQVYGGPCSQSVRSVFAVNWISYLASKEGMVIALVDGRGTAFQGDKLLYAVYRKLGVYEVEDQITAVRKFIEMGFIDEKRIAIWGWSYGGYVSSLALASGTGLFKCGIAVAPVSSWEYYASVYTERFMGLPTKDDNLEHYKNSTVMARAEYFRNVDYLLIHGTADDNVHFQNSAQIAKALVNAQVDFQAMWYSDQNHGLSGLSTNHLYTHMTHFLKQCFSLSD
Experimental: (§1) Whether the humanized antibody of the present disclosure can bind to human FAP protein stably expressed on the surface of 293T cells was determined by a cell binding assay. Firstly, the sequences encoding human FAP protein (NM_004460.2, SEQ ID NO: 31) and cynomolgus FAP (XM_005573320.2, SEQ ID NO: 32) were cloned into expression vector PIRES-puro3 (Clontech, Cat #631619) […]. The vectors were used to transfect 293T cells. […]
(§2) The human FAP antibodies (huF19-LG and sibrotuzumab) were 4-fold serially diluted from a starting concentration of 200 nM to a total of 8 concentrations and added to the cells for co-incubation at 4° C. for 30 min. […] The cells were washed twice with PBS and then resuspended, and finally, fluorescence signals were detected using the […] (BD Bioscience) flow cytometer.
Whether the mutant antibody in the present disclosure can bind to human or cynomolgus FAP protein stably expressed on the surface of 293T cells was determined by a cell binding assay. […] The cells were washed twice with PBS and then resuspended, and finally, fluorescence signals were detected using the […] (BD Bioscience) flow cytometer. […]

murine FAP = biological target: T2, murine FAP (Mus musculus, UniProt P97321); experiment: Binding to murine FAP
T2 sequence (P97321 1-761): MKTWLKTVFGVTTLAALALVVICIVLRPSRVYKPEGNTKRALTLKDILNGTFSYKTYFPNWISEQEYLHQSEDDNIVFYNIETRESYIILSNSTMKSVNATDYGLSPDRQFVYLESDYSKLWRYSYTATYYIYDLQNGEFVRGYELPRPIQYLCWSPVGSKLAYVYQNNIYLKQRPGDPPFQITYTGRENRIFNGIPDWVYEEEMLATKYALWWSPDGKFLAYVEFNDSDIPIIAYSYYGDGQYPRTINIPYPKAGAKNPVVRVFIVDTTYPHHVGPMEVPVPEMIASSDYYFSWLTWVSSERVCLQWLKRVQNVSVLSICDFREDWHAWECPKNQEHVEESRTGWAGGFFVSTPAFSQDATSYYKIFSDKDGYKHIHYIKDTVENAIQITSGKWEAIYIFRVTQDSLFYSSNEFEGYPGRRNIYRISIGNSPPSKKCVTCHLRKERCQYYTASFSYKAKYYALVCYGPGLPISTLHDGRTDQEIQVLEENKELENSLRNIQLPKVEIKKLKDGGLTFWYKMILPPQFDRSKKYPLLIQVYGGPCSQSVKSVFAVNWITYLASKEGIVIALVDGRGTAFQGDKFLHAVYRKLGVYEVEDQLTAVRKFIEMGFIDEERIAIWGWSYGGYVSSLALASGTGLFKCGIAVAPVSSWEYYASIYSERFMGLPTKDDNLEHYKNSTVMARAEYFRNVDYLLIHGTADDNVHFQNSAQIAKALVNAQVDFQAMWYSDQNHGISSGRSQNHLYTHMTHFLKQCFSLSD

[3] = system: cynomolgus FAP protein expressed on 293T cells; experiment: Cell binding assay by flow cytometry, 293T-cynomolgus FAP cells
Sequence of cynomolgus FAP protein expressed on 293T cells (as listed by the source): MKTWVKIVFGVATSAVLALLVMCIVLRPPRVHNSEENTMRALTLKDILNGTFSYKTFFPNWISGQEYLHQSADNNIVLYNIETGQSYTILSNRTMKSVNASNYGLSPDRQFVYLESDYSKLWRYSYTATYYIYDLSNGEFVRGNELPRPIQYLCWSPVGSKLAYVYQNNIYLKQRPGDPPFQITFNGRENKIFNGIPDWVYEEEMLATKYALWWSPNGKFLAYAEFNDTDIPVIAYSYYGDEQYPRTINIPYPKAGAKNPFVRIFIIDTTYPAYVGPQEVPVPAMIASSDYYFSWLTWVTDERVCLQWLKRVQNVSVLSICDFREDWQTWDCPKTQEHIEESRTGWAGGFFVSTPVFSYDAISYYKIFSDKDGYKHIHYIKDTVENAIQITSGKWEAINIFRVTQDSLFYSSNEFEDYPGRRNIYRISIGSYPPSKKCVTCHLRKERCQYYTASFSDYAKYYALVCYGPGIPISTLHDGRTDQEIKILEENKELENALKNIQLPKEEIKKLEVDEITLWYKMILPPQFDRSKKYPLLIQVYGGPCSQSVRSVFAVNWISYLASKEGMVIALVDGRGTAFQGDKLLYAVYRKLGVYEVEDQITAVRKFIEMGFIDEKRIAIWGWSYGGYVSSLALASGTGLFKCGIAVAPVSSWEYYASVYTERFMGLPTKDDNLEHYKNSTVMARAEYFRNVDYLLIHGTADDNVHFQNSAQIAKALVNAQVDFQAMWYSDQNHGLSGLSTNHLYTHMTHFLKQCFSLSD
Experimental: as §1, §2
Whether the mutant antibody in the present disclosure can bind to human or cynomolgus FAP protein stably expressed on the surface of 293T cells was determined by a cell binding assay. […] The cells were washed twice with PBS and then resuspended, and finally, fluorescence signals were detected using the […] (BD Bioscience) flow cytometer.

- binding to murine protein (murine FAP): cannot bind to murine protein
B1: huF19-LG-NGR: mutant of huF19-LG with G56R (Kabat) in heavy chain CDR2; VH SEQ ID NO: 21, VL SEQ ID NO: 15 (antibody, V domains shown)
VH: QVQLVQSGAEVKKPGASVKVSCKASGYTFTEYTIHWVRQATGQGLEWIGGINPNNRIPNYNQKFKGRATMTVGTSISTAYMELSSLRSEDTAVYFCARRRIAYGYDEGHAMDYWGQGTLVTVSS
VL: DIQMTQSPSSLSASVGDRVTITCKSSQSLLYSRNQKNYLAWFQQKPGKAPKLLIFWASTRESGVPSRFTGSGFGTDFTLTISSLQPEDFATYYCQQYFSYPLTFGQGTKLEIK
- change in purity by SEC during storage ([1]; 0 to 4 weeks): did not exhibit significant changes in purity
- Purity by SEC, % ([1]; 0 weeks): 99.2%
- Purity by SEC, % ([1]; 2 weeks): 99.1%
- Purity by SEC, % ([1]; 4 weeks): 99.1%
- binding to human FAP protein expressed on engineered 293T cells (FACS) [2]: can bind to human FAP protein and cynomolgus FAP protein expressed on engineered 293T cells, with the binding capacities comparable to those of the antibody before mutation
- binding to cynomolgus FAP protein expressed on engineered 293T cells (FACS) [3]: can bind to human FAP protein and cynomolgus FAP protein expressed on engineered 293T cells, with the binding capacities comparable to those of the antibody before mutation
